Measured values from publication PMC11162806 (Nucleic Acids Research, 2024).

Target: T1, TwinStrep-tagged UPF1 CH domain (residues 110-282) (human, UniProt Q92900 110-282)
T1 sequence (looked up): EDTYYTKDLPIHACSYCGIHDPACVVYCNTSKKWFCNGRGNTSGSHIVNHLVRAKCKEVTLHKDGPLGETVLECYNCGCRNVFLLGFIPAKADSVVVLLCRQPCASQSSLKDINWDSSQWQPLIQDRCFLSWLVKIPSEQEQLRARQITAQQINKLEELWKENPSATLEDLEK
Assay: ITC

B1: MBP-tagged UPF2 residues 1095-1250 (UPF2 CH-binding domain) (domain or fragment, human, UniProt Q9HAU5 1095-1250, looked up)
chain: VMIKGGGLKHVPCVEDEDFIQALDKMMLENLQQRSGESVKVHQLDVAIPLHLKSQLRKGPPLGGGEGEAESADTMPFVMLTRKGNKQQFKILNVPMSSQLAANHWNQQQAEQEERMRMKKLTLDINERQEQEDYQEMLQSLAQRPAPANTNRERRP
- Kd: 1460 ± 250 nM

B2: MBP-tagged SMG6 residues 390-430 (SMG6 CH-binding domain) (domain or fragment, human, UniProt Q86US8 390-430, looked up)
chain: EKQESKNPKQELRGRGRGILILPAHTTLSVNSAGSPESAPL
- Kd: 4280 ± 250 nM
